{"source": "paper PMC3458246", "about": "(Scientific Reports, 2012)", "proteins": {"B1": {"name": "Death Associated Protein Kinase 1 (DAPK1) K42W, HA tagged, kinase dead (enzyme, human, UniProt P53355 1-1430, looked up)", "chain": "MTVFRQENVDDYYDTGEELGSGQFAVVKKCREKSTGLQYAAWFIKKRRTKSSRRGVSREDIEREVSILKEIQHPNVITLHEVYENKTDVILILELVAGGELFDFLAEKESLTEEEATEFLKQILNGVYYLHSLQIAHFDLKPENIMLLDRNVPKPRIKIIDFGLAHKIDFGNEFKNIFGTPEFVAPEIVNYEPLGLEADMWSIGVITYILLSGASPFLGDTKQETLANVSAVNYEFEDEYFSNTSALAKDFIRRLLVKDPKKRMTIQDSLQHPWIKPKDTQQALSRKASAVNMEKFKKFAARKKWKQSVRLISLCQRLSRSFLSRSNMSVARSDDTLDEEDSFVMKAIIHAINDDNVPGLQHLLGSLSNYDVNQPNKHGTPPLLIAAGCGNIQILQLLIKRGSRIDVQDKGGSNAVYWAARHGHVDTLKFLSENKCPLDVKDKSGEMALHVAARYGHADVAQLLCSFGSNPNIQDKEEETPLHCAAWHGYYSVAKALCEAGCNVNIKNREGETPLLTASARGYHDIVECLAEHGADLNACDKDGHIALHLAVRRCQMEVIKTLLSQGCFVDYQDRHGNTPLHVACKDGNMPIVVALCEANCNLDISNKYGRTPLHLAANNGILDVVRYLCLMGASVEALTTDGKTAEDLARSEQHEHVAGLLARLRKDTHRGLFIQQLRPTQNLQPRIKLKLFGHSGSGKTTLVESLKCGLLRSFFRRRRPRLSSTNSSRFPPSPLASKPTVSVSINNLYPGCENVSVRSRSMMFEPGLTKGMLEVFVAPTHHPHCSADDQSTKAIDIQNAYLNGVGDFSVWEFSGNPVYFCCYDYFAANDPTSIHVVVFSLEEPYEIQLNQVIFWLSFLKSLVPVEEPIAFGGKLKNPLQVVLVATHADIMNVPRPAGGEFGYDKDTSLLKEIRNRFGNDLHISNKLFVLDAGASGSKDMKVLRNHLQEIRSQIVSVCPPMTHLCEKIISTLPSWRKLNGPNQLMSLQQFVYDVQDQLNPLASEEDLRRIAQQLHSTGEINIMQSETVQDVLLLDPRWLCTNVLGKLLSVETPRALHHYRGRYTVEDIQRLVPDSDVEELLQILDAMDICARDLSSGTMVDVPALIKTDNLHRSWADEEDEVMVYGGVRIVPVEHLTPFPCGIFHKVQVNLCRWIHQQSTEGDADIRLWVNGCKLANRGAELLVLLVNHGQGIEVQVRGLETEKIKCCLLLDSVCSTIENVMATTLPGLLTVKHYLSPQQLREHHEPVMIYQPRDFFRAQTLKETSLTNTMGGYKESFSSIMCFGCHDVYSQASLGMDIHASDLNLLTRRKLSRLLDPPDPLGKDWCLLAMNLGLPDLVAKYNTSNGAPKDFLPSPLHALLREWTTYPESTVGTLMSKLRELGRRDAADFLLKASSVFKINLDGNGQEAYASSCNSGTSYNSISSVVSR"}}, "biological_target": "the molecule itself", "assay": "SEC", "data": [{"protein": "B1", "values": [{"measurement": "stoichiometry N", "result": 2}]}]}
